Our source for the Kd values is patent US20180118806A1 (MIT, published 2018).

In experiment [1] the target is T1, Rantes (CCL5) (UniProt P13501 24-91).
T1 construct: In the yeast 2-hybrid screen the ligand construct is not described
T1 sequence (looked up): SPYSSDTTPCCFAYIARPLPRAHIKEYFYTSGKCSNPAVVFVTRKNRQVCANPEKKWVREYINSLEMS
Nature of the experiment: MST, run 3, LED power 15%, technical repeat. As for the experimental part:
(§1) Each run of assay systematically measures 16 capillaries with identical concentration of a non-full length CCR5^QTY variant, but different concentrations of Rantes (Prospecbio http://www.prospecbio.com/Rantes/) with 2 duplicate measurements (Technical repeat 1 and 2).
(§2) Briefly, serial dilution of the target molecule Rantes was prepared in buffer to match the final buffer conditions in the reaction mix. The highest concentration of target was 6.0 μM, and the lowest 184.0 pM. About 5 μl of each dilution step were mixed with 5 μl of the fluorescent molecule—a partial water-soluble […] variant of CCR5 (e.g., CCR5-SZ218a). The final reaction mixture, which was filled in capillaries, contained a respective amount of target molecule (max. conc. 3.0 μM, min conc. 92.0 pM) and constant 5 nM fluorescent molecule.

The target of experiment [2] is T1, Rantes (CCL5). Nature of the experiment: MST, run 1, rounded value of the two technical repeats. The procedure: as §1, §2
(§3) The samples were analyzed on a Monolith NT.115 Pico at 25° C., with 12% LED power and 80% Laser power. No sticking of the fluorescent interaction partner to the capillary walls was indicated in the capillary scan.

The target in experiment [3] is T1, Rantes (CCL5). The experiment can be described thus: MST, run 2, rounded value of the two technical repeats (FIG. 6). As for the experimental part:
as §1, §2, §3

The target in experiment [4] is T1, Rantes (CCL5). The experiment can be described thus: MST, run 1, technical repeat; dye-labelled variant at 5 nM, Rantes titrated. The procedure: as §1, §2, §3
Experiment [5] addresses T1, Rantes (CCL5). Nature of the experiment: MST, run 2, technical repeat; dye-labelled variant at 5 nM, Rantes titrated. The procedure:
as §1, §2, §3

For experiment [6], the target named is T1, Rantes (CCL5). Nature of the experiment: MST, run 2, technical repeat; run 2, first technical repeat. The procedure:
as §1, §2, §3

Experiment [7] deals with T1, Rantes (CCL5). Nature of the experiment: MST, run 3, technical repeat; run 3, first technical repeat. The procedure: as §1, §2, §3
The target in experiment [8] is T1, Rantes (CCL5). Nature of the experiment: MST, run 2, technical repeat; run 2, second technical repeat. As for the experimental part:
as §1, §2, §3

Experiment [9] has as its target T1, Rantes (CCL5). The experiment can be described thus: MST, run 3, technical repeat; run 3, second technical repeat. As for the experimental part:
as §1, §2, §3

Experiment [10] addresses T1, Rantes (CCL5). Nature of the experiment: MST, run 1, technical repeat; dye-labelled variant at 5 nM, Rantes titrated (FIG. 7); run 1, first technical repeat. As for the experimental part:
as §1, §2, §3

Experiment [11] concerns the target T1, Rantes (CCL5). Nature of the experiment: MST, run 1, technical repeat; dye-labelled variant at 5 nM, Rantes titrated (FIG. 7); run 1, second technical repeat. The procedure: as §1, §2, §3
Experiment [12] has as its target T1, Rantes (CCL5). Nature of the experiment: MST (MicroScale Thermophoresis), labelled CCR5QTY variant constant, Rantes titrated (axis 0.01-10000 nM); left panel, fits of Tech. 1 and Tech. 2. The procedure: as §1, §2, §3
For orientation: In MST a laser heats a spot of the sample, and binding alters the fluorescence response.

Experiment [13] deals with T1, Rantes (CCL5). The experiment can be described thus: MST (MicroScale Thermophoresis), labelled CCR5QTY variant constant, Rantes titrated (axis 0.01-10000 nM); right panel, fits of Tech. 1 and Tech. 2. The procedure:
as §1, §2, §3

Experiment [14] deals with T1, Rantes (CCL5). The experiment can be described thus: MST (FIG. 5). The procedure:
as §1, §2, §3

In experiment [15] the target is T1, Rantes (CCL5). Nature of the experiment: fluorescent MST (FIG. 5). The procedure: as §1, §2, §3

Where “and” joins values, the source holds several entries; their conditions need not be identical. Equal values may be shown once.

B1: SZ218a = CCR5QTY(218a) (receptor)
chain: MDYQVSSPIYDINYYTSEPCQKINVKQIAARQQPPQYSQTYTFGFTGNMQTTQTQINCKRLKSMTDIYLQNQAISDQFFQQTTPFWAHYAAAQWDFGNTMCQQQTGQYFTGYYSGTYYTTQQLNTFQEFFGLNNCSSSNRLDQAMQTTETQGMTHCCINPTTYAYVGEKFRNYLLVFFQKHIAKRFCKCCSIFQQEAPERASSVYTRSTGEQEISVGL
modifications: labelled with the dye DY647P1 in the MST assay (site not stated)
notes: Dye-labelled in MST; fusion partner in yeast 2-hybrid not described; also called 5NA-43; CCR5_SZ218a DY647P1
A word on the Kd: it is the equilibrium constant for the complex coming apart. A high value points to a looser complex. Consider B1, for which the Kd was 86.9 nM and 94.6 nM in the experiment with Rantes (CCL5) [1]; roughly 75 nM in the experiment with Rantes (CCL5) [2]; roughly 80 nM with Rantes (CCL5) [3]; 74.5 nM and 76.2 nM with Rantes (CCL5) [4]; 80.2 nM and 83.2 nM with Rantes (CCL5) [5].

B2: SZ190b = CCR5QTY(190b) (receptor)
chain: MDYQVSSPIYDINYYTSEPCQKINVKQIAARLQPPQYSQTFTFGFTGNMQTTQTQINCKRLKSMTDIYLQNQAISDQFFQQTTPYWAPYNTVQQQNTFQEFFGLNNCSSSNRLDQAMQVTETQGMTHCCTNPTIYAFVGEKFRNYLLVFFQKHIAKRFCKCCSIFQQEAPERASSVYTRSTGEQEISVGL
modifications: labelled with the dye DY647P1 in the MST assay (site not stated)
notes: Partial QTY variant of CCR5, 190 aa; Dye-labelled in MST; in the yeast 2-hybrid screen the fusion partner is not described; also called 5NA-17: Contig1; CCR5_SZ190b DY647P1
Consider B2, for which the Kd came out at 27.4 nM in the experiment with Rantes (CCL5) [6]; 32 nM with Rantes (CCL5) [7]; 56.5 nM with Rantes (CCL5) [8]; 54.9 nM in the experiment with Rantes (CCL5) [9]; 46.5 nM with Rantes (CCL5) [10]; 51.8 nM with Rantes (CCL5) [11]. Besides, the dissociation constant Kd is roughly 46 nM in the experiment with Rantes (CCL5) [12] and roughly 48 nM in the experiment with Rantes (CCL5) [13].

B3: SZ352a = CCR5QTY(352a) (receptor)
chain: MDYQVSSPIYDINYYTSEPCQKINVKQIAARQQPPQYSQTFTYGFTGNMQTTQTQINCKRLKSMTDIYLQNQAISDQYYQQTTPYWAHYAAAQWDFGNTMCQQQTGQYFTGYYSGTYYTTQQTTDRYLAVVHAVFALKARTTTYGTTTSTTTWTTATYASQPGTTYTRSQKEGLHYTCSSHFPYSQYQFWKNFQTLKITIQGQVQPQQTMVTCYSGTQKTLLRCRNEKKRHRAVRQTFTTMTTYYQYWAPYNTTQQLNTFQEFFGLNNCSSSNRLDQAMQVTETQGMTHCCTNPTIYAYVGEKFRNYLLVFFQKHIAKRFCKCCSIFQQEAPERASSVYTRSTGEQEISVGL
modifications: labelled with a dye in the MST assay (dye and site not stated for this variant)
notes: Full-length (352 aa) QTY variant of CCR5, used as control in MST; also called CC15-22; full-length (352 aa) CCR5^QTY variant
Turning to B3, the Kd in the experiment with Rantes (CCL5) [14] is 28 to 32 nM; with Rantes (CCL5) [15], roughly 30 nM; with Rantes (CCL5) [12], roughly 28 nM; in the experiment with Rantes (CCL5) [13] it was roughly 32 nM.
